Data on 30 sequences can be found in the nanobody polyreactivity screen of Harvey et al. (2022).

The nature of the series: yeast display, Sf9 membrane polyspecificity reagent, FACS + sequencing; frameworks hold sequencing errors. In short, it runs like this:
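After 36–48 hours of galactose induction, yeast (Saccharomyces cerevisiae BJ5465) displaying a synthetic nanobody library were stained at 4 °C for 1 hour with 10% biotinylated, detergent-solubilized Sf9 membrane reagent. Streptavidin microbeads enriched the stained cells before FACS sorting into low and high (top ~1%) gates on anti-HA and streptavidin fluorescence. Each clone's polyreactivity label reflects its gate of origin.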
Turning to “QVQLQESGGGLVQAGGSLRLSCAASGTITFAAYMGWYRQAPGKEREYVASIGYGATTYYADSEKGRFTISRDNANNTVYLPMNSLKPGDTAVYYCAVDRSPQYRYLYYWGQGTQVTVCS”, the “polyreactivity (PSR sort gate)” value is “high polyreactivity”.
“QVQLVESGGGLVQAGGSLRLSCAASGFIFVGNAMGWYRQAHGKERELVAAISRRGSRTFYADSVKARFTISRDNAKNTVYLQMNSLKPEETAVYYCAAEGYYVTPFDYWGQGTQVTVSS”: the “polyreactivity (PSR sort gate)” value is listed as “high polyreactivity”.
In the case of “QVQLVESGGGLVQAGGSLRLSCAASGRTFYTYARGWYRQAPGKERELVAAITKRGGSTYYADSVKGRFTISRDYAKNTVYLQMNSLKPEDTAVYYCNQELATARGQSLYRTYSGYGYWGQGTQVTVSS”, the “polyreactivity (PSR sort gate)” value is reported as “high polyreactivity”.
In the case of “QVQLVESGGGLVQAGGSLRLSCAASGRTFYPYVMGWYRQAPGKEREFVAAISGTGGTTYYADSVKGRFTISRDNAKTTVYLQMNSLKPEDTAVYYCNRRIPYTSYSYGYWGQGTQVTVSS” it was “high polyreactivity”; in that of “QVQLVETGRGLVQAGGSLRLSCAASGRIFYANAMGWYRQAPGKERELVAAISRTGGSTYYADSVKGRFTISRDNAKNTVYLQMNSLKPEDTAVYYCNALSGVYGYDDWGQGTQVTVSS”, “high polyreactivity”; in that of “QVQLVESGGGLVQAGGSLRLSCAASGSTFYYYAMGWYRQAPGKERELVASISFSGGSTYYADSVKGRFTISRDNAKNTVYLQMNSLKPEDTAVYYCGYYYWGQGTQVTVSS”, “low polyreactivity”.
In the case of “QFQLVESGGGLVQAGGSLRLSCAASGRIFYLYAMGWYRQAPGKERELVAGITSGGRTNYADSVKGRFTISRDNGKNTVFLQMNSLKPEDSAVYYCAAGSLRYKYDYWGQGTQVTVSS” it was “high polyreactivity”.
In the case of “QVQLVESGGGLVQAGGSLRLSCDPSGYTLVDYAMGWYRQAPGKESELVAGISSGDSTYYADSVKGRFTISRDNAKNTVYLQMNSLKPEDTAVYYCNAGLKTIFLLYRWTLFDYWGQGTQVTVSS” it was “high polyreactivity”.
As to “QVQLVESRGGLVQAGGSLRLSCAASGFTFGWYAMGWYRQSPGKERELVAAITSGGSTKYADSVKGRFTISRDNAKNTVYLEMNSLKPEETAVYYCAAKRLGQYRPYTYGYWGQGTQVTVSS”, the “polyreactivity (PSR sort gate)” value is “high polyreactivity”.
Under “QVQLVESGGGLVQAGGSLRLSCAASGRIFTTYAMGWYRQAPGKERELVAAISRSGGSTYYADSVKGRFTISRDNAKNTVYLQMNSLKPEDTAVYYCAARRRQEHVGRSSYARYDYWGQGTQVTVSS” stands “high polyreactivity”.
In the case of “QVQLVESGGGLVQAGGSLRLSCAASGFTFLRYAMGWYRQAPGKERELVAAITGGGNTNYADSVKGRFTISRDNAKNTVYLQMNSLKPEDTAVYYCNARRRYWPYREDYWGQGTQVTVSS” it was “high polyreactivity”; in that of “QVQLVESGGGLVQAGGSLRLSCAASGNIRNYGMGCSRQAPGKERELVDAISSGGVRTYYADSVKGRFTLSRDNAKNTVYLQMNSLKPEETAVYYCAVASWYYLYPPGYRAITHDYWGQGTQVTVSS”, “high polyreactivity”.
In the case of “QVQLVESCGGLVQAGGSLRLSCAASGLIFIYNAMGWYRQAPGKERELVAAISRSGGRTYYADSVKGLFTISRDNAKNTVYVQMNSLKPEDTEVYYCATDASTYAYYGGDYWGQGTQVTVSS” it was “low polyreactivity”; in that of “QVQLVESGGGLVQAGGSLRLSCAASGIIFKSYAVGWYRQAPGKERELVAAISSGGSTNYADSVKGRFTISRDNAKNTVYLQMNSLKPEDTAVYYCAKRYTATEWHGERDYWGQGTQVTVSS”, “high polyreactivity”.
Consider “QVQLVESGAGLVQAGGSLRLSCAASGRTFYWYVMGWYRQAPGKERELVAAITQTGSSTYYADSVKGRFTISRDYAKNTVYLQMNSLKPEDTAVYYWAAEASSVPGYDYWGQGTQVTVSS”, for which the “polyreactivity (PSR sort gate)” value is “low polyreactivity”.
In the case of “QVQLVESGGGLVQAGGSLRLSCAASGRTFKYYAMGWYSQAPGKERELVAAITRSGVSTSYADSVKGRFTISRDNAKNTVYLQMNSLKPEDTAVYYCNVYGYTYYTRGVGYWGQGTQVTVSS” it was “high polyreactivity”; in that of “QVQIVESGGGLVQAGGSLRLSCAASGLIFKYYAMGWYRQAPGKERELVATITRGGGSTYYADSVKGRFTISRDNAKNTVYLQMNSLKPEDTAVYYCAADYWYVYPRYNPGDYWGQGTQVTVSS”, “high polyreactivity”; in that of “QVQLVESGGGLVQAGGSLRLSCAASGRIIGTYAMGWYRQAPGKERELVAAITARTSSTYYADSVKGRFTISRDNAKNTVYLQMNSLKPEDTAVYYCARTGSYRPSFRYDYWGQGTQVTVSS”, “high polyreactivity”.
For “QVQLVESGGGLVQAGGSLRLSCAASGFTFSPYAMGWYRQATGKERELVAAIRWTDGSTYYADSVKGRFTISRDNAKNTVYLQMNSLKPEDTAVYYCAAYWYHNIGGYGPGLNYWGEGTQVTVSS”, the “polyreactivity (PSR sort gate)” value is on record as “high polyreactivity”.
Under “QVQLVESGGGLVQAGGSLRLSCAASGSISQGNAMGWYRQAPGKERELVAAIRWTSGRTYYADSVKGRFTISRDNAKNTVSLEINSLKPEDPAVYYCAAYYVYYTPTLFDRDYWGQGTQVTVSS” stands “low polyreactivity”.
In the case of “QVQLVESGGGLFQAGGSLRLSCAASGRIFGDNGMGWYRQAPGKERELVTYADSVKGRFTISRDNAKNTVYLQMNSLKPEDTAVYYCNKDPPRLSGLDENYWGQGTQVTVSS”, the “polyreactivity (PSR sort gate)” value is “low polyreactivity”.
In the case of “QVQLVESGGGLVQAGGSLRLSSAASGSTFPSYAMGWYRQAPGKERELVAAINSGGGTNYADSVKGRFTISRDNAKNTVYLQMNSLKPEDTAVYYCAKSRYDYTKTEGGYWGLGTQVTVSS” it was “low polyreactivity”; in that of “QVQLVESGGGLVQAGGILRISCAASGSISSYYAMGWYRPAPGKERELVAAITSGGRTYFADSVKGRFTISRDNAKNTVYFQMNSLKQEDTAVYYCNARTARNPIKGRASDYWGQGTQVTVSS”, “high polyreactivity”; in that of “QVHLVESGGGLVQAGGSLRLSCAASGITDWIYAMGWYRQAPGKERELVAAITGRGGSTYYADSVKGRFTISRDKAKNTVYLQMNSLKPEVTAVDYCAAESWYSTYDYWGQGTQVTVSS”, “high polyreactivity”.
Under “QVQLVESGGGLVQAGGSLRLSCAASGITFYGYAMGWYRQAPGKERELVAAITSGGSTNYADSVKGRFTISRDNAKNTVYLQMNSLKPEDTAVYYCAADLWAYGYYYVGYDYWGQGTQVTVSS” stands “low polyreactivity”; under “QVQLVESGGGLVQAGGSLRLSCAASGSIFPFYAMGWYRQAPGKERELVAGISGSAGRTYYADSVKGRFTISRDNAKNTVYLQMNSLKPEDTAVYYCAAVYYSSLYDYWGQGTQVTVSS”, “high polyreactivity”; under “QVQLVESGGGLVQAGGSLRLSCAASGSIFVKYTMGWYRQAPGKERELVAAISFRGGSTYYADSVKGRFTISRDNAKNTVYLQINSLKPEDTAVYYCNADGGWWPEYYWGQGTQVTVSS”, “low polyreactivity”.
Under “QVQLVESGGGIVKAGGSLRLSCAPSGSTFDYYTMGWYRQAPGKERELVAAISRSGGSTRYADSVKGRFTISRDNAKNTVDLQMNSLKPEDTAVYYCAAGARQGVYRGGDYWGQGTQVTVSS” stands “low polyreactivity”.
On to “QVQLVESGGGLVQAGGSLRLSCAASGFTLTRNAMGWYRQAPGKERELVAAISWSGGTTYYADSVKGRFTISRDNAKNTVYLQMNSLKPEDTADYYCNTASWRAQYYYWGQGTQVTVSS”, for which the “polyreactivity (PSR sort gate)” value was “high polyreactivity”.
Under “QVLLVESGGGLVQAGGSLRLSCAASGSTFLRYTMGWYRQAPGKERELVAAINYGGGSTYYADSVKGRFTISRDNAKNTVYLQMNSLKPEDTAVYYCAAGFFRSAHGGKFYYWGQGTQVTVSS” stands “high polyreactivity”.
